Measurements: patent US20130197191A1 (published 2013)

B1: β-Klotho walked dimer BK_R1c_D05 (designed binder)
chain: CAAGQFRCHNSDTCLPGAWVCDGDNDCGDNSDEASCQKRTCHSFNQFECRNGQCIPLHLVCDGVPDCGDNSDETDCGDSHILPFSTPGPST
B2: β-Klotho walked dimer BK_R1c_D18 (designed binder)
chain: CPPDEFQCRGTKKCLPLAWVCDGDNDCEDDSDEESCASAVHTCQSNEFRCRSGRCIPQHWLCDGLNDCGDGSDESQQCSAPASEPPGSL
B3: β-Klotho walked dimer BK_R1c_D22 (designed binder)
chain: CQPDEFTCSSGRCIPQPWLCDGLNDCGDGSDEPPAHCSAPASEPPGSLCRPDEFRCKNGRCIPQTWVCDGEDDCQDSSDETDCESTVRT
B4: β-Klotho walked dimer BK_R1c_D24 (designed binder)
chain: CRPDEFPCRSTGRCVPRRWVCDGVDDCGDNSDESLAHCQTPTCQPDEFTCSSGRCIPQPWLCDGLNDCGDGSDEPPAHCSAPASEPPGSL

The binders below were run against recombinant human β-Klotho (UniProt Q86Z14 53-996, biotinylated in the AlphaScreen assays (site not stated)) (assay: binding EC50).
Chain of recombinant human β-Klotho (Q86Z14 53-996): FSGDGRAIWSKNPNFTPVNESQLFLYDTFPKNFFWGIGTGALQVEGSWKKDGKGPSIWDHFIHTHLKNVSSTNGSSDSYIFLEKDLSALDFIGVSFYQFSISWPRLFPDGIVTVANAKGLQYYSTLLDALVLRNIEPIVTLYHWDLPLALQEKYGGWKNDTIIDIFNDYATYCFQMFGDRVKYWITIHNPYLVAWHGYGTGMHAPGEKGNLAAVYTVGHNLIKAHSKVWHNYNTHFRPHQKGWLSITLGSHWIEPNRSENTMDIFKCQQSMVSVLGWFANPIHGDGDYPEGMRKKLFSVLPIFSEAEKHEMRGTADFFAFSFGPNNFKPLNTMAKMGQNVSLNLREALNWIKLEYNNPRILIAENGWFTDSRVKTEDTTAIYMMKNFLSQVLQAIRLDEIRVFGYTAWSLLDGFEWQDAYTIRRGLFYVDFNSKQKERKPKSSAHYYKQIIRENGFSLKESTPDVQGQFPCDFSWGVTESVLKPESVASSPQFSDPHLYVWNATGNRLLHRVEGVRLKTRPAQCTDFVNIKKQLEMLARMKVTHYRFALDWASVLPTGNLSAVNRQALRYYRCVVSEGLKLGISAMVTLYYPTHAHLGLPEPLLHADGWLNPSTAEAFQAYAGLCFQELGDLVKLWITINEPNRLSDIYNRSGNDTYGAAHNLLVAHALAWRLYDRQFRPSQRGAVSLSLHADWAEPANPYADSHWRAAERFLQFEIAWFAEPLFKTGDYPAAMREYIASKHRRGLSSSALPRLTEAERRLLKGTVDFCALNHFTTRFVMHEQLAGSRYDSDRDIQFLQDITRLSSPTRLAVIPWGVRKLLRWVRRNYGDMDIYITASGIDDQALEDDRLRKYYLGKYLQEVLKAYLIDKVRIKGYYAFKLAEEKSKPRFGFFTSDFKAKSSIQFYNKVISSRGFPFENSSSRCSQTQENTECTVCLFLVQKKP

Binder | EC50 [nM]
B1 | 0.01
B2 | 21.5
B3 | 99
B4 | 8.52
